According to patent publication US6613875B1, “Cyclic peptide tube” (The Scripps Research Institute, priority 1993, dated 2003):
Square brackets hold non-standard residues; d marks the D form. Peptide text beside a SMILES is read from it. dNMeA = CN[C@H](C)C(=O)O

Assays:
[1] = Proton transport (collapse of pH gradient) in vesicles with entrapped 5(6)-carboxyfluorescein; assay type: biochemical; settings: vesicles pH 6.5 inside, pH 5.5 outside; 25° C.; equal molar amounts of channel forming compounds
Source text: The proton efflux is expressed in terms of the fractional change in the fluorescence intensity of vesicle entrapped 5(6)-carboxyfluorescein as a function of time (sampling time was at 0.3 seconds interval). Equal molar amounts of channel forming compounds were used in each experiment to allow direct comparisons of channel-mediated proton transport activity. The amount of added channel forming compounds in each experiment ranged from of 2 to 20 nmoles corresponding to approximately 150 channels per liposome for the lowest concentrations to 1100 channels per liposome for the highest amount of added compounds.
Formation of transmembrane channels was also inferred from its highly efficient proton transport activity. Vesicles were prepared having pH 6.5 inside and pH 5.5 in the outside bulk solution. The collapse of the imposed pH gradient in these vesicles, upon formation of the putative transmembrane channel structure, was studied by monitoring the fluorescence intensity of an entrapped pH-sensitive dye. (V.E. Carmichael et al, in J.Am. Chem. Soc. (1989), vol. 111, pages 767-769). […] Unilamellar vesicles were prepared by the reverse-phase evaporation using DPPC, OPPC, cholestrol in the ratio of 1:1:2 in a solution containing 5(6)-carboxyfluorescein (20 mM in phosphate/saline buffer: 137 mM NaCl, 2.6 mM KCl, 6.4 mM Na2HPO4, 1.4 mM KH2PO4, pH 6.5) according to the method of F. Szoka et al. in Proc. Natl. Acad. Sci. USA (1978), vol. 75, pages 4194-4198. […] Vesicles formed in this way are approximately 150 nanometer in diameter as determined by electron microscopy. […] To the cuvett, through an injector port, […] of the channel forming compounds in DMSO was added with continuous fluorescence monitoring at 520 nm (excitation at 470 nm). The observed data were then normalized for comparison into the fractional change in fluorescence ((I0−It)/(I0−I∞)) (V. E. Carmichael et al, in J.Am. Chem. Soc. (1989), vol. 111, pages 767-769)). […]

[2] = Incorporation of peptide subunit into lipid bilayers of large unilamellar vesicles (absorption and fluorescence spectroscopy); assay type: physicochemical; settings: aqueous liposomal suspensions
Source text: Incorporation of the peptide subunit into lipid bilayers using large unilamellar vesicles has been established by absorption and fluorescence spectroscopy. Formation of the hydrogen-bonded transmembrane channel structure in phosphatidylcholin liposomes has been supported by FT-IR spectroscopy (FIG. 24). The observed amide-I band at 1624 cm^−1 is not only similar to the carbonyl stretching frequencies found in other nanotube structures disclosed herein, but is also consistent with the infrared spectrum of gramicidin A in similar lipid bilayers. (E. Nabedryk et al in Biophys. J. (1982), vol. 38, pages 243-249. Furthermore, the observed N-H stretching frequency at 3272 cm^−1 strongly supports the formation of a tight network of hydrogen bonds with an average intersubunit distance of 4.7 Å.
The second control peptide cyclo[-(^MeN-D-Ala-Phe)4-] which has the desirable hydrophobic surface characteristics but lacks the propensity for participating in extended hydrogen bonding network, was also designed and tested for ion transport activity. The peptide design incorporates a novel N-methylation strategy on one face of the ring structure which predisposes the subunit toward a dimeric cylindrical structure (Ghadiri, M. R., Kobayashi, K., Granja, J. R., Chadha, R., and McRee, D. E. manuscript in preparation). Such a dimeric cylindrical ensemble is approximately 10 Å thick and can not span the lipid bilayer.
The ten-residue peptide subunit employed in the present study, cyclo[-Gln-(D-Leu-Trp)4-D-Leu-], is made up of largely tryptophan and leucine residues to favor its partitioning into and self-assembly in lipid bilayers. It was synthesized on solid support^5 and characterized by ^1H NMR spectroscopy and mass spectrometry. […] This has been supported by absorption and fluorescence spectrophotometry and gel permeation studies. Formation of a hydrogen bonded transmembrane channel structure in phosphatidylcholin liposomes has been established by FT-IR spectroscopy^6. […]

[3] = Dimerization (self-assembly) of N-methylated cyclic peptide in nonpolar solvents, 1H NMR / van't Hoff; assay type: physicochemical
Source text: Variable temperature NMR experiments in DMSO indicate cis-trans conformational activation barriers on the order of 16 to 17 kcal.mol^−1. However, in nonpolar solvents such as carbon tetrachloride (CCl4) or deuterochloroform (CDCl3) the peptide exists in an all trans flat-ring-shaped backbone conformation which is in dynamic equilibrium with the expected dimeric cylindrical ensemble. […] The preponderance of a flat ring-shaped backbone conformation is also indicated by the observed 7.5 Hz JNH-CaH coupling constant. Intermolecular hydrogen bonding interactions producing the stacked dimeric ensemble are signified by the expected downfield shift of the phenylalanine N—H backbone resonance from 6.98 to 8.73 ppm (JNH-CaH=8.5 Hz) and are unequivocally established by the observed exchange and NOE cross peaks in its ROESY spectrum.
Formation of a tight hydrogen bonded ensemble with an average intersubunit N—O distance of 2.95 Å is also evidenced by the appearance of an N—H stretching band in the infrared spectrum at 3309 cm^−1.
[…] […] The Ka(CCl4) reported was performed in a mixture of 84% CCl4 and 16% CDCl3 for solubility reasons.
Variable temperature studies (van't Hoff plots) establish the following thermodynamic parameters for the dimerization process in chloroform: ΔCp=−203.1 cal.K^−1.mol^−1, ΔH^0298=−11.0 kcal.mol^−1, and ΔS^0298=−23.7 e.u. which clearly supports the expected enthalpic contribution of intermolecular hydrogen bonding interactions (0.5 to 0.7 kcal.mol^−1 for each hydrogen bonding interaction) as the major driving force in the self-assembly process.
The above experiments indicate that the peptide subunit adopts a flat ring-shaped solution conformation which is energetically favored toward ring stacking and intermolecular hydrogen bonding interactions by 4.0 to 5.6 kcal.mol^−1, depending on the solvent employed. It follows then that an additive gain in free energy of stabilization is to be expected as the number of ring-stacking interactions are increased. This is particularly relevant to the self-assembled nanotubes and to the transmembrane ion channel structures that can be produced.

[4] = pH dependent solubility of peptide subunit in aqueous media; assay type: physicochemical
Source text: FIG. 17 illustrates the hydrogen bonding of molecular tubes constructed with cyclic peptide 1.
The design, synthesis, and characterization of a molecular tube, i.e., a cyclic peptide tube or “organic nanotube,” is described. A rationally designed 24-membered ring peptide structure can be constructed and shown to undergo a proton-triggered self-assembly to produce tubular structures hundreds of nanometers long, with internal van der Waals diameter of 7 to 8 Å. Formation of tubular structures is established by Electron Microscopy (EM), electron diffraction studies, and Fourier Transformed Infrared Spectroscopy (FT-IR). A three-dimensional model of the molecular tube consistent with the experimental observations is also presented. As opposed to the recently identified closed concentric graphite tubes, cyclic peptide tubes, by virtue of the cyclic nature of their components, are open ended structures and have uniform shape and internal diameter, e.g., Tsang, S. C. et al. (1993), Nature 362, 520-522 and Ajayan, P. M. et al. (1993), Nature 362, 522-525 (1993). The proton-triggered self-assembly process described herein is a highly convergent approach in which numerous ring-shaped peptide subunits interact through an extensive network of hydrogen bonds to form molecular tube structures. Example I features an eight-residue cyclic peptide with the following sequence: cyclo[-(D-Ala-Glu-D-Ala-Gln)2-]. (Sequence No.: 1) In designing the subunit, it is shown that cyclic peptides with an even number of alternating D- and L-amino acids can adopt or sample a low energy ring-shaped flat conformation in which all backbone amide functionalities lie approximately perpendicular to the plane of the structure. In this conformation, subunits can stack in an anti-parallel fashion and participate in backbone-backbone intermolecular hydrogen bonding to furnish a contiguous β-sheet structure. Moreover, because of the alternating D- and L-amino acid sequence, peptide side chains must \necessarily lie on the exterior of the ensemble thereby creating the desired hollow tubular core structure. […]

Row | Compound | apparent ion (proton) transport activity [1] | partitioning / incorporation into lipid bilayers [2] | association constant Ka(CCl4) of dimerization ([3]; 293 K, mixture of 84% CCl4 and 16% CDCl3, lower limit (included water)) | ΔCp of dimerization ([3]; chloroform, van't Hoff plots) | ΔH^0298 of dimerization ([3]; chloroform, van't Hoff plots) | ΔS^0298 of dimerization ([3]; chloroform, van't Hoff plots) | association constant Ka(CDCl3) of dimerization ([3]; water rigorously excluded (4 Å molecular sieves)) | solubility in aqueous media ([4]; acidic / low pH) | solubility in aqueous media ([4]; acidic / low pH, listed as cyclo[-(D-Ala-Glu-D-Ala-Gln)2-]) | solubility in aqueous media ([4]; high (alkaline) pH)
1 | cyclo[-(Gln-D-Leu)4-] (cyclo(Q[dL]Q[dL]Q[dL]Q[dL]); SMILES CC(C)C[C@H]1NC(=O)[C@H](CCC(N)=O)NC(=O)[C@@H](CC(C)C)NC(=O)[C@H](CCC(N)=O)NC(=O)[C@@H](CC(C)C)NC(=O)[C@H](CCC(N)=O)NC(=O)[C@@H](CC(C)C)NC(=O)[C@H](CCC(N)=O)NC1=O) [cyclo[-(Gln-D-Leu)4], control peptide lacking surface characteristics for partitioning into lipid bilayers] | does not display any ion transport activity | – | – | – | – | – | – | – | – | –
2 | cyclo[-(L-Phe-D-^Me NAla)4-] (cyclo(F[dNMeA]F[dNMeA]F[dNMeA]F[dNMeA]); SMILES C[C@@H]1C(=O)N[C@@H](Cc2ccccc2)C(=O)N(C)[C@H](C)C(=O)N[C@@H](Cc2ccccc2)C(=O)N(C)[C@H](C)C(=O)N[C@@H](Cc2ccccc2)C(=O)N(C)[C@H](C)C(=O)N[C@@H](Cc2ccccc2)C(=O)N1C) [N-methylated cap subunit / second control peptide, forms dimeric cylindrical structure] | does not promote proton transport activity | partition effectively | 14000 M⁻¹ | −203.1 cal.K^−1.mol^−1 | -11.0 kcal/mol | −23.7 e.u. | 2540 M⁻¹ | – | – | –
3 | C[C@H]1NC(=O)[C@H](CCC(N)=O)NC(=O)[C@@H](C)NC(=O)[C@H](CCC(=O)O)NC(=O)[C@@H](C)NC(=O)[C@H](CCC(N)=O)NC(=O)[C@@H](C)NC(=O)[C@H](CCC(=O)O)NC1=O [cyclic peptide 1, cyclo[-(Gln-D-Ala-Glu-D-Ala)2-]] (cyclo(Q[dA]E[dA]Q[dA]E[dA])) | – | – | – | – | – | – | – | lower water solubility | lower solubility | high water solubility
